In one experiment the target is RSV F on RSV-A2 virus (Respiratory syncytial virus, RSV-A2, UniProt P03420 26-574). Nature of the experiment: cell-based or functional assay.
Experiment [1] has as its target RSV fusion glycoprotein (RSV F) on RSV-A2 virus (respiratory syncytial virus, UniProt P03420 26-574). Nature of the experiment: cell-based or functional assay.

B1: ADI-41812 (antibody, V domains shown)
VH: EVQLVESGGGLVKPGGSLRLSCAASGFTFSSYSMNWVRQAPGKGLEWVSSISAGSSYTDYAESVKGRFTISRDNAKNSLYLKMNSLRAEDTAVYYCARDPGYCSSNSCTVAMDVWGQGTTVTVSS
VL: SYELTQPPSVSGAPGQRVTISCTGSSSNIGAGYDVHWYQQLPGTAPKLLIYGNNNRPSGVPDRFSGSKSGTSASLAITGLQAEDEADYYCQSYDRTLVIFGGGTKLTVL
For B1, in the experiment with RSV F on RSV-A2 virus, the “Neutralization IC50 (RSV subtype A)” value was determined as 0.17 µg/mL.

B2: ADI-36675 (antibody, V domains shown)
VH: EVQLVESGGGLVQPGGSLRLSCAASGFTFNRFAMSWVRQAPGKGLEWVSGISGSGGSTLYADSVKGRFTISRDNSKNTLYLQINSLRVEDTAVYYCASRSSYDDVWNGYVDWDWGFDFYYYGMDVWGQGTTVTVSS
VL: QAVVTQEPSMSAAPGQKVTISCSGGDSNIRNNYVFWYQQLPGTAPKLLIYDNTKRPSGIPGRFSGSKSGASATLDITGLQTGDEADYYCGTWDSSLSALVFGGGTQLTVL
Regarding B2, the “Neutralization IC50 (RSV subtype A)” value with RSV F on RSV-A2 virus stood at 0.006 µg/mL.

B3: ADI-41772 (antibody, V domains shown)
VH: EVQLLESGGGLVEPGTSLRLSCEASGFTFSDYYMSWIRQAPGKGPEWVADISSRGVVTYYADSVKGRFTISRDNAKNSLYLQLNSLGAEDTAVYYCARLREVTYIMPTIDYFDYWGQGTLVTVSS
VL: SYELTQPPSVSVSPGQTARITCSGDAFVKKYAYWYHQKSGQAPVVVIYEDTKRPSGIPERFSGSSSGTTATLTISGAQVEDEGDYYCYSRDFSGDHGVFGGGTKLTVL
Consider B3, for which the “Neutralization IC50 (RSV subtype A)” value in the experiment with RSV F on RSV-A2 virus amounted to 0.04 µg/mL.

B4: ADI-41800 (antibody, V domains shown)
VH: QVQLVQSGAEVKKPGASVKVSCKASGYTFTDYYMHWVRQAPGQGLEWLAWINPYTGGTNYAQKFQGRVTLTRDTSVSTTYMEVTRLRSDDTAVYYCARGESFHHWGQGTLVTVSS
VL: QSALTQPASVSGSPGQSITISCTGTSSDIGGYDYVSWYQQHPGKVPKLMIYEVSTRPSGVSIRFSGSKSGNTASLTISGLQAEDEADYYCSSYTRSTITSVVFGGGTKLTVL
For the molecule B4, the “Neutralization IC50 (RSV subtype A)” value in the experiment with RSV F on RSV-A2 virus was greater than 25 µg/mL.

B5: ADI-41584 (antibody, V domains shown)
VH: QVQLVESGAEVKKPGASVKVSCKASGYTFTDYYIHWVRQAPGQGLEWVGRINPNSGYINYAQKFQGRLTMTRDTSISTAYLELSSLRSDDTAVYYCTRLPLLEPLNFFDYWGQGTLVTVSS
VL: QSVVTQPPSVSGAPGQRVTISCTGSSSNIGAGYDVHWYQQLPGTAPKVLIYGNNNRPSGVPDRFSGSKSGTSASLAITGLQAEDEADYYCQSFDSSLSSSYVFGTGTKLTVL
Regarding B5, the “Neutralization IC50 (RSV subtype A)” value in the experiment with RSV F on RSV-A2 virus is greater than 25 µg/mL.

B6: ADI-41783 (antibody, V domains shown)
VH: QVQLVQSGDEVKKPGASVKVSCKSSGYTFTHFGVSWVRQAPGQGLEWMGWISGYNGNTNYAQKLQGRVTMTTDTSTTTAYMELTSLRSDDTAVYYCARDSPAGTVTLDFWGQGTTVTVSS
VL: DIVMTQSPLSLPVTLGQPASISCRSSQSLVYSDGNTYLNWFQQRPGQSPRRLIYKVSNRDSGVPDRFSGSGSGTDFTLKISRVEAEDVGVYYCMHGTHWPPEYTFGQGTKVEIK
For B6, the “Neutralization IC50 (RSV subtype A)” value with RSV F on RSV-A2 virus was 0.25 µg/mL.

B7: ADI-41439 (antibody, V domains shown)
VH: QVQLVQSGTEVKNPGASVKVSCKASGYTFSNYGITWVRQAPGQGLEWMAWISAYNGNILYAQNVQGRVTMTTDTSTSTGYMELRSLRSDDTAVYYCARDAPAGTLTLLDYWGQGTLVTVSS
VL: DIVMTQTPLSLPVTLGQPASISCRPSQSLVYSDGNTYLNWFQQRPGQSPRRLIYKVSNRDSGVPDRFSGSGSGTDFTLRISRVEAEDVGVYYCMQGSHWPYAFGQGTKVEIK
Consider B7, for which the “Neutralization IC50 (RSV subtype A)” value in experiment [1] was found to be 0.34 µg/mL.

B8: ADI-41441 (antibody, V domains shown)
VH: EVQLVQSGPGLVKPSETLSLTCSVSGASISRYHYYWGWIRQSPGKGLEWIGTIYYSGTTYYNPSLESRVTISADTSKNQVSLKLTSVTAADTAVYYCARGSGDTALDFSFEYWGQGALVTVSS
VL: DIQLTQSPSFLSASVGDRITITCRASQGISNSLAWYQQKPGKAPKLLIYAASTLQFAVPSRFSGSGSGTEFTLTISSLQPEDFATYYCQQLDSYPLTFGGGTKLEIK
B8: the “Neutralization IC50 (RSV subtype A)” value in experiment [1] was greater than 25 µg/mL.

B9: ADI-41568 (antibody, V domains shown)
VH: QVQLQQWGARLLKPSETLSLTCAVYGGSFSGYYWSWIRQSPGKGLEWIGEINHSGSTNYNPSLKSRVTISRDTSKKQFSLKVSSVTAADTAVYYCARDPPIRCNGDSCKSDQYRYGMDVWGQGTTVTVSS
VL: QPGLTQPPSVSVSPGQTARITCSGDALPKQYAYWYQQKPGQAPVLVIHKDNERPSGIPERFSGSSSGTTVTLTISGVQAEDEADYYCQSADTSGSYRLFGGGTKLTVL
On to B9, for which the “Neutralization IC50 (RSV subtype A)” value with RSV F on RSV-A2 virus was greater than 25 µg/mL.

B10: ADI-41571 (antibody, V domains shown)
VH: EVQLLESGGGLVKPGGSLRLSCEASGFPFNSYHMNWIRQSPGKGLEWVSYITGGSSFSNYADSVKGRFTISRDNAKNSLYLQMNSLRAEDTAVYYCARTTLDCTSTSCHYRFDYWGQGTLVTVSS
VL: QSVLTQPPSVSGAPGQRITISCNGSNSNIGAGYDVHWYQQLPGKAPKLLIYSNNNRPSGVPDRFSGSKSGTSASLAITGLQGEDEADYYCQSHDTRLSGNVVFGGGTKLTVL
For B10, the “Neutralization IC50 (RSV subtype A)” value with RSV F on RSV-A2 virus was 0.0315 µg/mL.

B11: ADI-41792 (antibody, V domains shown)
VH: QVQLVQSGGGLVKHGGSLRLSCAASGFTFSSYSMNWVRQAPGKGLEWASSISSSSSYIYYADSVKGRFTISRDNAKNSLYLQMNSLRAEDTAVYYCARTEYSSSSPIFDYWGQGTLVTVSS
VL: QSVLTQPPSVSGAPGQRVTISCTGSSSNIGAGYDVHWYQQLPGTAPKLLTYGNSNRPSGVPDRFSGSKSGTSASLAITGLQAEDEADYYCQSYDSSLSGSVFGGGTKVTVL
Take B11: the “Neutralization IC50 (RSV subtype A)” value in the experiment with RSV F on RSV-A2 virus was greater than 25 µg/mL.

B12: ADI-41585 (antibody, V domains shown)
VH: EVQLLESGGGLVKPGGSLRLSCAASGFTFADYYMSWIRQAPGKGLEWVSYISGGSSFTNYADSVKGRFTISRDNAKNSLYLQMNSLRADDTAVYYCARGISPALGGGEYFQDWGQGTLVTVSS
VL: QPVLTQPPSVSGAPGQRVTISCTGSSSNIGAGYDVHWYQHLPGTAPKLLIYGNSNRPSGVPDRFSGSKSSTSASLAITGLQAEDEADYYCQSYDSSLGGYVFGTGTKVTVL
Regarding B12, the “Neutralization IC50 (RSV subtype A)” value with RSV F on RSV-A2 virus worked out at 0.0641 µg/mL.

B13: ADI-41810 (antibody, V domains shown)
VH: QVQLVQSGGGVVQPGRSLRLSCAASGFNFHNYAMHWVRQAPGKGLEWVAVISYDGGNKHYADSVKGRFTISRDNSKNTLYLQMNSLRPDDTAVYYCARGHSDWRGDYFDFWGQGTLVTVSS
VL: DIQLTQSPATLSVSPGERAILSCRASQNVGTNLAWYQQKPGQAPRLLIYDASTRATGIPARFSGSGAGTDFTLTISGLQSEDFAVYYCQQYINWPPYTFGQGTKLEIK
Consider B13, for which the “Neutralization IC50 (RSV subtype A)” value in the experiment with RSV F on RSV-A2 virus was greater than 25 µg/mL.

B14: ADI-41788 (antibody, V domains shown)
VH: QVQLVQSGAEVKKPGASVKVSCQASGYTLTTYDINWVRQAPGQGLEWMGWMNANSGNTGYAQKFQGRVTMTRNISISTAYMELSSLGPEDTAVYYCARGFYKWNDWSFDYWGQGTLVTVSS
VL: QSVLTQPPSVSVAPGQTARITCGGNNIGSKSVHWYQQKPGQAPVLVVYDDSDRPSGIPERFSGSNSGNTAPLTISRVEAGDEADYYCQVWDGDSAHHAVFGGGTQLTVL
On to B14, for which the “Neutralization IC50 (RSV subtype A)” value with RSV F on RSV-A2 virus is 0.47 µg/mL.

B15: ADI-41563 (antibody, V domains shown)
VH: QVQLVESGPGLVKPSETLSLTCTVSDDSITNNFWTWIRQPPGKGLEWIGYIYYSGSTNYNPSLKSRITMSVDLSKNQFSLKLSSVTAADTAVYYCARLTSGGVDYWGQGTLVTVSS
VL: QSVLTQPPSLSGAPGQRVTISCTGSSSNIGADYHVHWYQQLPGTAPKLLIYQNTNRPSGVPDRFSASKSGTSVSLAITGLQAEDEADYYCQSYDSSLSAWVFGGGTKLTVL
In the case of B15, the “Neutralization IC50 (RSV subtype A)” value in the experiment with RSV F on RSV-A2 virus turned out to be 0.0323 µg/mL.

For the origin of these results see US20260258115A1 (MAPP BIOPHARMACEUTICAL, published 2026).
